Positions count from the first letter of the chain named.
T1: HsMGME1 H180Q (Homo sapiens, UniProt Q9BQP7 21-344, H180Q)
T1 sequence: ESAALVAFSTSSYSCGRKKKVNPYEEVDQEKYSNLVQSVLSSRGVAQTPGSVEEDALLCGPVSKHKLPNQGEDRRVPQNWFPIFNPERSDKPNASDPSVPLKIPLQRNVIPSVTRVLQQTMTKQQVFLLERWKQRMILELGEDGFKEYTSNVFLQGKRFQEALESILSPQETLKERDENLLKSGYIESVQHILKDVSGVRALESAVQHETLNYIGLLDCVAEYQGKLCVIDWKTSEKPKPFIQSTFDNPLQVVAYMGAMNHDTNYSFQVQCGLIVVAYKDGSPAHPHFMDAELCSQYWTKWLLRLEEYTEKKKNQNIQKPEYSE

T2: HsMGME1 WT (Homo sapiens, UniProt Q9BQP7 21-344)
T2 sequence: T1 sequence with Q160H

B1: DNA3 (mixed)
DNA 1: GGATCCTTCTTCTTCTTC
DNA 2: GGATCCTTCTTCTTCTTC

What was measured:
HsMGME1 H180Q = target: T1, HsMGME1 H180Q; assay: crystal structure; one Ca2+ at A-site; acetate; 30 mM CaCl2 in sample; No solution binding assay; crystals at 18 C, protein 10 mg/ml in 20 mM Tris pH 8.0, 200 mM NaCl, 1 mM DTT, protein:DNA 1:1.2; DNA2: phosphate-citrate pH 4.2, 20% PEG300; H180Q-DNA2-Ca2+: 0.1 M CHES pH 9.5, 20% PEG 8000; DNA3: 0.1 M HEPES pH 7.5, 0.8 M NaH2PO4, 0.8 M K2HPO4; conditions: protein: recombinant; tags: none expected (His-SUMO removed by Ulp1); single strand
HsMGME1 WT [1] = target: T2, HsMGME1 WT; assay: crystal structure (1.75 A); CaCl2 in the sample (10 mM), but no Ca2+ bound at the active site; No solution binding assay; crystals at 18 C, protein 10 mg/ml in 20 mM Tris pH 8.0, 200 mM NaCl, 1 mM DTT, protein:DNA 1:1.2; DNA2: phosphate-citrate pH 4.2, 20% PEG300; H180Q-DNA2-Ca2+: 0.1 M CHES pH 9.5, 20% PEG 8000; DNA3: 0.1 M HEPES pH 7.5, 0.8 M NaH2PO4, 0.8 M K2HPO4; conditions: protein: recombinant; tags: none expected (His-SUMO removed by Ulp1); single strand
HsMGME1 WT [2] = target: T2, HsMGME1 WT; assay: crystal structure (Se-SAD and native); three of four molecules contact only the 3' overhang, one contacts duplex and overhang; No solution binding assay; crystals at 18 C, protein 10 mg/ml in 20 mM Tris pH 8.0, 200 mM NaCl, 1 mM DTT, protein:DNA 1:1.2; DNA2: phosphate-citrate pH 4.2, 20% PEG300; H180Q-DNA2-Ca2+: 0.1 M CHES pH 9.5, 20% PEG 8000; DNA3: 0.1 M HEPES pH 7.5, 0.8 M NaH2PO4, 0.8 M K2HPO4; conditions: protein: recombinant; tags: none expected (His-SUMO removed by Ulp1); self-complementary 6-bp duplex GGATCC, 3' overhang 12 nt on both strands; 2 copies of the strand

Row | Binder | binding result (HsMGME1 H180Q) | binding result (HsMGME1 WT [1]) | binding result (HsMGME1 WT [2])
1 | AACAACAACAAC (ssDNA) [ssDNA2] | binds | binds | 
2 | B1 |  |  | binds

Reference: publication PMC6237815, “Structural insights into DNA degradation by human mitochondrial nuclease MGME1”
